The record followed here is paper PMC5744401.

Common to all, as to conditions: EMSA: 0.3 nM DIG-labeled probe; buffer, salt, pH and temperature as in Zhu et al. 2016 (not given)
Background: In EMSA bound probe runs differently from free probe, usually more slowly.

Series [1] concerns the target T1, His6-AvaR1 (Streptomyces avermitilis) (UniProt Q82H41).
T1 sequence: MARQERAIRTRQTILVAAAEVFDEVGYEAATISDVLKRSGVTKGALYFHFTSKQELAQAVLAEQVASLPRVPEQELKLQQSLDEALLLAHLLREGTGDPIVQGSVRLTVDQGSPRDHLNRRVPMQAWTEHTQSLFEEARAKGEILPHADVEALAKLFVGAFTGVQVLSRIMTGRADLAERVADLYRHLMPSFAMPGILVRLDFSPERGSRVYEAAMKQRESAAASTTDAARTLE
As to the kind of experiment: EMSA.

The target in series [2] is T1, His6-AvaR1 (Streptomyces avermitilis). Nature of the series: competition EMSA.
For series [3], the target named is T2, GST-AvaR2 (Streptomyces avermitilis) (UniProt Q82H44).
T2 sequence: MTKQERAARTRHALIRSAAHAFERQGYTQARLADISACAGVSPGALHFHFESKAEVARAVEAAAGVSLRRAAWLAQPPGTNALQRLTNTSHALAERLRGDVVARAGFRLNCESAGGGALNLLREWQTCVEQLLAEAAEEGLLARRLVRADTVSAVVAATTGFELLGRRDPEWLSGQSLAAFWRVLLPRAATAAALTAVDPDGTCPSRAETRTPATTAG
Nature of the series: EMSA.

Series [4] addresses T3, His6-AvaR1;GST-AvaR2 (Streptomyces avermitilis;Streptomyces avermitilis) (UniProt Q82H41+Q82H44).
T3 sequence 1: T1 sequence
T3 sequence 2: T2 sequence
Nature of the series: EMSA.

For series [5], the system named is His6-AvaR1 (Streptomyces avermitilis). As to the kind of experiment: competition EMSA.
Series [6] deals with T1, His6-AvaR1 (Streptomyces avermitilis). Nature of the series: DNase I footprinting.
For series [7], the target named is T4, His6-AvaR2 (Streptomyces avermitilis) (UniProt Q82H44).
T4 sequence: T2 sequence
Nature of the series: EMSA.

As for “GCCACACGCACCCTCCGCACCAGCCCGACCAGCGGGACACCGTCCCGACCAGTGGGACACCGTCCGGATCGCGGGACACCGTCCCGACCAGCGGGAAAAGACCAAGCGGTTCGCACCCTAACAGCGACGATCCTCCACTCCACCGCCGAAGACAGGCCCGGTCCTGACCGGGACGATAAAACCAGCTGAACGGTTTTTCAATGCTCCCCTCGCCCTCTCACAAACCACTCAAAAACACATATCTCACCCCCAACTCCC (double strand) [avaR1p]”, in series [1], the binding result is recorded as “binds”. Also, in series [2], the binding signal (affinity rank of 5 (1 = strongest)) was determined as 5.

For the substance “GCGGAAGGCGGCTGACCAGAGGGCCCTGCAAGAAACCAGCATAGCGGTTTGTTTGTGGCGCCCGTCACCACTTCGCCGACGCGGTACCCCCGGAGGCCAGGCACCGGTCACTGCCGCCGCCCGCGCTGCCCGCTGCCGCCGCCGAGCCGTACCGCGCGGCTCGGGCGTCGCGCATGCCGTCAGGCCCCCGGCACCTCCCTG (double strand) [avaR2p]”, in series [1], the binding entry is recorded as “binds”. The binding signal (affinity rank of 5 (1 = strongest)) in series [2] was 2.

As to “GTGCTGCAACACCGAATGGAATACCGGGTGACCGGTATGTATGGCGGTGCGGTGACCGCGGAAACGGCTCGGGCGGATTGACCGCCCGAGCCGGAGGAGAAGGCCATCGCCGCACCCGCGAGCAAGGGTCCAGAGGGACGGCGGCGCGAAGGCGGCCTGGCCTATGGGGAGTTCGGAGGACCAGGCGTCA (double strand) [aveRp]”, in series [1], the binding entry is reported as “binds”. Further, in series [2], the binding signal (affinity rank of 5 (1 = strongest)) was 3.

Turning to “ATCCACGCTTCTCGCTCCGCCCAGTGTACGGCGCCGCGCGGACAGCGGCCGACCGGTTTTCCGGGGCCCGCGCGGAAGGCGGCAGGGGGGCCGGTACGGGCCGCGGACTGACCCGAATGGCGA (double strand) [ileSp]”, the binding entry in series [1] was “no binding”.

Take “GAACTGGGTGACGAGGAGCTTCTCGCGAAGCTTCGCGAAGCCAAGGAAGAGCTGTTCAACCTCCGCTTCCAGGCGGCGACCGGTCAGCTCGAGAACCACGGTCGGCTCAAGGCCGTCCGCAAGGACATCGCGCGGATCTACACCCTGATGCGTGAGCGCGAGCTGGGCATCGAGACGGTGGAGAGCGCCTGATGAGCGAGAGCAACGTGACTGAGACCAACGAGCAGCGCGGTTTCCGCAAGACCCGTGAGGGTCTGGTCGTCAGCGACAAGATGGACAA (double strand) [rpsQp]”: in series [1], the binding result is reported as “binds”.

Consider “ACTGATGCGCGAGAAAACCGCACAAGCGGTTTGTTAAAGTTGCTGGACCCCCATCAGCAACGGAGCGCCCGATGGTCAAGCAGGTCAGACAGGAACGCGCGATCCGCACGCGCAACGCCTTGATCGAGTCC (double strand) [avaR3p]”, for which, in series [1], the binding result was “binds”. In addition, the binding signal (affinity rank of 5 (1 = strongest)) in series [2] came to 1.

Turning to “TTGTGCCCTGTGTGTGCGCCATGGGCATACCGTCCGGGCGGAATGCCGGGTTCCGGCATCGAACGTCGTGCGATTCGGCAGTTCGAGCGATACCGGATGGTTTCGCTTCTGTTCGATTGCGGGGTGTGGTGTAGGCCAGTACGCGAAACTCGCCGGAAAAGGGGCACCCGCCGCCCGTAGGCTGGGAGGCAT (double strand) [3560p]”, in series [1], the binding entry is “binds”.

In the case of “TTCAACTGACCGTCCCGCACGTAGAGTTCTGGAGTCACCCGCACATGACCGTACGCAAGAACCAGGCGACCCTGACGGCCGACGAGAAGCGGCGCTTCGTCGACGCGCTCGTGGCGCTCAAGCGCAGTGGCCGCTACGACGAGTTCGTCACGACCCACAACGCCTTCATCATGGGCGACACCGACAGCGGCGAACGCACGGGCCATCGTTCGCCTTCCT (double strand) [melC2p]”, in series [1], the binding result is “no binding”.

Consider “GAGCTTCTCCCTGGCTTGGGACGGGCTGACGTGAACCACGGGACCCGAGAAGGGCTGAGGAAGGGCTGGAGAGCTGCGGAAGAGCTGCGGAGGAGCTGCGGAAGAGCTGCGGAAGAGCTGGAGGTCAAAGATACGTACTAGACGGTTTTGTCTTCAAGTCCCTCTTGCGGTCAAGGGTCATCCCTTACAAGGGAGTTGGGGGTGAGATATGTGTTTTTGAGTGGTTTGTGAGAGGGCG (double strand) [acop]”, for which, in series [1], the binding result is “binds”. Also, in series [2], the binding signal (affinity rank of 5 (1 = strongest)) came out at 4.

On to “CCGCTGGAGTCTGAGAAGCCATGGAAGCATTCACCACGCACACCGGCCGGGCCGTCCCGCTGCGCCGCAGCAACGTCGACACCGACCAGATCATCCCCGCCCACTGGCTCAAGAAGGTCACCAGGGACGGTTTCGAGGACGGGCTGTTCGAGGCCTGGCGCAAGGACGAGTCCTTCATCCTCAACCG (double strand) [leuDp]”, for which, in series [1], the binding entry is “binds”.

In the case of “TGCGGTGACCCCCATCTCGATCAGTTCGGTGGGGTGAAACCGCGTGAGCCGGTTGTCGTCCAGGCTCTGGGGCCCGGTGTCCGCGAGGGCGGGGAACGCCCTGAGGGAGGGGTAGGCATAAGGAAGGTACTCGGCGAGGCCGCTGCTGTGGTTGATCAACATCCGGACCGTGATCGCGTCACCGCGTTCTCCGGGAACCAGCCTCGGAAGGTACCGGCCGATCGGAGTGTCAAGACCGATCAGGTCACCGACGAGGAGTGCAACGC (double strand) [2051p]”, the binding result in series [1] is reported as “no binding”.

Turning to “GGGTAGTGTCAAGGTCGCTGACTTTGATGATTAACTGATGATCGTGGGATTCTGAGGTGGTGTTCGCGAGGGTGAAGGAGTTCCTTCCTGGAGACATCCGTGCCCCGGATGGCGGTCCACAATTCACGAGTGGGATGCGCAGTGGGTCGCGTGCTGCAACACCGAATGGAATACCGGGTGACCGGTATGTATGGC (double strand) [aveRp2]”, the binding result in series [1], in series [3] and in series [4] was “binds” in each case.

Turning to avaR2p, the binding signal (affinity rank of 5 (1 = strongest)) in series [5] was 2.

As for “GCCACACGCACCCTCCGCACCAGCCCGACCAGCGGGACACCGTCCCGACCAGTGGGACACCGTCCGGATCGCGGGACACCGTCCCGACCAGCGGGAAAAGACCAAGCGGTTCGCACCCTAACAGCGACGATCCTCCACTCCACCGCCGAAGACAGGCCCGGTCCTGACCGGGACGATAAAACCAGCTGAACGGTTTTTCAATGCTCCCCTCGCCCTCTCACAAACCACTCAAAAACACATATCTCACCCCCAACTCCC (double strand) [avaR1 footprint probe]”, in series [6], the binding result is given as “binds”.

As for avaR3p, in series [5], the binding signal (affinity rank of 5 (1 = strongest)) was 1.

Regarding “GCCCTCGTCCCAGTAGAAGACGGGTCGCCGGGTTCCTGGGCCCGTGGCCCGCATGCGCAGCTCGACCTGGGTGATCACCTCGGTCTGCGTGGTCTCGACTCATGACCGCGCCGGTCAGCGCCTCCACAAGTCGTCCAAGTTTCAGCCGGTGGCAGACATTCCGTGA (double strand) [wbpAp]”, in series [1], the binding entry is given as “no binding”.

Take aveRp: the binding signal (affinity rank of 5 (1 = strongest)) in series [5] came out at 3.

For “CCCTCGACCGGATTGTGGGAGCATCGTGCCATTCCAAGTGGCCGCTATGTGACCGAGTGCCCCCGATCGGCCCCAGATGGCGGGTTAAGGCTAATTAAGGAAACCCCCTGACGCCCCCTGACGGGGTCTGCTCACCCGCACGGCATGATGGCCCCCATGCGTGCGGTGGTGCAGAGGGTGGACGGCGCGAGCGTCGTCGTGGAAGGCGAGAACGGGCCGGAGACGGTCGGTGAGATCAACGGCGAGG (double strand) [amfCp]”, the binding result in series [1] was “binds”.

For the substance avaR1p, the binding signal (affinity rank of 5 (1 = strongest)) in series [5] turned out to be 5.

Consider “TCAACCACCGTCATGTAGGGCGTACGCCCTTGCTGTACGGACCCGGTGTGTTGACGCCCGGTGCCGCGAGCGCACCCCCGCCCGCTCACGGCACCGGACTTCTCGGTGTTCCGGATGACGTCGTGCAGACGCGTGACAACTGCGCCAGTGCTGGTGCTGTGCAGCGTGTTCATCTCGCGCCCCCCGTCGTGGAGTCCGGTATCCCTGCGGTCTTGCCCTGCTGTCCTGCGGTGGTGCTGCCTTGCTTGTGTCGAAAAGCTTGCC (double strand) [probe 1]”, for which the binding entry in series [1] is on record as “no binding”.

Take “GCTCTTCGTGCTCACCGTCTTCGTCGCGTACGCGTACGTATGGCGGCGCGGCGGTCTGGAATGGGACTGAGGGGCCTTTAACGACATGGGACTCGAAGAAAAGCTGCCGAGCGGATTCCTGCTGACGAC (double strand) [nuoB1p]”: the binding entry in series [1] is given as “binds”.

Turning to “CTCGGGCGTGATCCGACTGCGGCGCACCGTTGCGGTCTCAGTCATCGCACTCGCCTCTCCTGCTTCGAACGACACGGTTTCCGGTTGCGTACGTCTACCCGTACGTCTTCCTCGTACCTTCCTGAAGATACCCCGAGAGCGAGCGAAACGAAACCGTTTCGTACGTGTCGTGGGTCACGCACATGTTTTCACAAGTTGCCGGGGCCCGTCGCGCGGAAAAGCATGGGTTAGGTGAACCCCGAGTCCGA (double strand) [aveTp]”, the binding result in series [7] and in series [1] was “binds” throughout.
